The record followed here is article PMC3237458 (2011).

Square brackets hold non-standard residues; d marks the D form. Ends that are not written are not given here. * marks the point of attachment. Biotin = O=C1N[C@H]2[C@H](CS[C@H]2CCCCC(=O)*)N1; Ahx = NCCCCCC(=O)O

The target of test [1] is T1, EphB4 Fc (UniProt P54761 16-539).
T1 chain: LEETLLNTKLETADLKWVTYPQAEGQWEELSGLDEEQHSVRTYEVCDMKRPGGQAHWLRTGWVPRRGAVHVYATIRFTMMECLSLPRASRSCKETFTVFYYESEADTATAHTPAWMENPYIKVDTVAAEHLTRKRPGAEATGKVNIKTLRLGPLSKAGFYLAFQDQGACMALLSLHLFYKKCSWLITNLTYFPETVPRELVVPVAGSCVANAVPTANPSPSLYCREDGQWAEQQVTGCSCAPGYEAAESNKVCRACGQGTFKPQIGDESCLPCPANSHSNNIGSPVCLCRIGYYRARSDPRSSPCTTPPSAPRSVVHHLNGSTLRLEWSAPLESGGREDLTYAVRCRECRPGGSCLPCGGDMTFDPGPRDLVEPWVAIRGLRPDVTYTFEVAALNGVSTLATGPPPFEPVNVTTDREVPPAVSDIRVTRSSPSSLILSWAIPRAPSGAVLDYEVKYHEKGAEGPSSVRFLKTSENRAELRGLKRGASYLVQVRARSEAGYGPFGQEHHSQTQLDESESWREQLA
In words: ELISA; competition with ephrin-B2 AP.

Test [2] concerns the target T1, EphB4 Fc. In words: ELISA.
A further test has as its target T2, mouse EphB4 AP (mouse, UniProt P54761 16-539).
T2 chain: T1 chain
In words: ELISA.

For TNYLFSPNGPIARAW [TNYL-RAW peptide], the IC50 with EphB4 Fc [1] is 13 nM.
Molecule {PEG 40 kDa branched (NHS-glutaryl)}-TNYLFSPNGPIARAW [PEGylated TNYL-RAW (PEG-TNYL-RAW)] returned a Kd with EphB4 Fc [2] of 2.9 nM. The same molecule came in with an IC50 in the test with EphB4 Fc [1] of 24 nM.
Molecule TNYLFSPNGPIARAWGSGSK (Fc fusion) [TNYL-RAW fused with human Fc (TNYL-RAW-Fc)] showed a Kd with mouse EphB4 AP of 4.7 nM. Moreover, in the test with EphB4 Fc [1], the IC50 came out at 6.5 nM.
On to TNYLFSPNGPIARAW[Ahx]K(Biotin) [biotinylated TNYL-RAW peptide], for which the Kd came out at 2.7 nM with EphB4 Fc [2] and 11 nM in the test with mouse EphB4 AP.
